B1: Actin nucleation-promoting factor WAS (Homo sapiens), P42768 (parent)
chain: MSGGPMGGRPGGRGAPAVQQNIPSTLLQDHENQRLFEMLGRKCLTLATAVVQLYLALPPGAEHWTKEHCGAVCFVKDNPQKSYFIRLYGLQAGRLLWEQELYSQLVYSTPTPFFHTFAGDDCQAGLNFADEDEAQAFRALVQEKIQKRNQRQSGDRRQLPPPPTPANEERRGGLPPLPLHPGGDQGGPPVGPLSLGLATVDIQNPDITSSRYRGLPAPGPSPADKKRSGKKKISKADIGAPSGFKHVSHVGWDPQNGFDVNNLDPDLRSLFSRAGISEAQLTDAETSKLIYDFIEDQGGLEAVRQEMRRQEPLPPPPPPSRGGNQLPRPPIVGGNKGRSGPLPPVPLGIAPPPPTPRGPPPPGRGGPPPPPPPATGRSGPLPPPPPGAGGPPMPPPPPPPPPPPSSGNGPAPPPLPPALVPAGGLAPGGGRGALLDQIRQGIQLNKTPGAPESSALQPPPQSSEGLVGALMHVMQKRSRAIHSSDEGEDQAGDEDEDDEWDD

Variants of: B1
Conditions: with wipf1_human WIPF1, O43516
Chain of wipf1_human WIPF1, O43516 (O43516 whole entry): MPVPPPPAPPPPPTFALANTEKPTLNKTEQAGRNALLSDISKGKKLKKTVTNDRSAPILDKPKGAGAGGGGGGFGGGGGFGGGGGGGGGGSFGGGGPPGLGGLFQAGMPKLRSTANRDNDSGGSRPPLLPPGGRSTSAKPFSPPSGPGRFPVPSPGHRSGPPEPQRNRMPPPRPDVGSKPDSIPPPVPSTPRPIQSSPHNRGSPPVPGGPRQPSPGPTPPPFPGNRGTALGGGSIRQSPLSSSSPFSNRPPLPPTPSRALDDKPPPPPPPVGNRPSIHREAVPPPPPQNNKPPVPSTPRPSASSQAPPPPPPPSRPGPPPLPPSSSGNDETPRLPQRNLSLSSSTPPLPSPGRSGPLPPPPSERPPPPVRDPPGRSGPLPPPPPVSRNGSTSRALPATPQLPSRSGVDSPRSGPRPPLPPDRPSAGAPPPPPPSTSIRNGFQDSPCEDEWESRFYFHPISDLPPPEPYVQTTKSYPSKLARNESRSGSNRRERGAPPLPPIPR

effect of a mutation on the interaction | Variant
decreasing interaction | A134T
decreasing interaction | R86H
decreasing interaction | Y107C

Reference: IntAct's records for PubMed 10202051
